In patent US12331110B2, “Monoclonal antibodies against endotrophin and the use thereof” (THE BOARD OF REGENTS OF THE UNIVERSITY OF TEXAS SYSTEM, priority 2018, dated 2025):

Experiments:
[1] = test system: ETP transfected MCF7 cells; assay: ETP transfected MCF7 tumor growth in nude mice; format: in vivo; conditions: 2.5 mg/kg cisplatin once a week
Experimental: FIGS. 5A-C. Antibody effects on ETP-MCF7 cells in vivo. (FIG. 5A) ETP transfected MCF7 cells (2×10^6 cells) were implanted into nude mice. An estradiol pellet (0.72 mg) was implanted into nude mice. Then (i) 20 mg/kg ETPmAb4, (ii) 10 mg/kg ETPmAb4 with 10 mg/kg control IgG, (iii) 5 mg/kg ETPmAb4 with 15 mg/kg control IgG, (iv) 2 mg/kg ETPmAb4 with 18 mg/kg control IgG, and (v) 20 mg/kg control IgG (twice a week) were injected after 10-days implantation for 5-weeks. Tumor volume was determined by caliper measurement. Data was represented as mean±SD (n=5/group), and *** p<0.0001 by ANOVA followed by Newman-Keuls multiple comparison test. (FIG. 5B) Total RNA was prepared from tumor tissues from ETP transfected MCF7, ETPmAb4 treatment mice. The EMT markers genes Twist, Snail, Cdh2 and Cdh 1 were determined by qRT-PCR, then normalized to GAPDH. E-CAD immunofluorescence staining for tumor tissues from ETP transfected MCF7 and ETPmAb4 treatment tumor. (FIG. 5C) MCF7 and ETP transfected MCF7 cells (2×10^6 cells) were implanted into nude mice. An estradiol pellet (0.72 mg) was implanted into nude mice. Then 20 mg/kg of antibody ETPmAb4 (twice a week), and 2.5 mg/kg of cisplatin (once a week) were injected after 10-days implantation for 6-weeks. Tumor volume was determined by caliper measurement. Data was represented as mean±SD (n=5/group), and *** p<0.0001 by ANOVA followed by Newman-Keuls multiple comparison test.
Animal experiments. NU/NU nude female mice were purchased from Charles River (Crl: NU-Foxnlnu; Strain Code 088 (Homozygous)). Breast cancer cells (2×10^6 cells) were implanted by intraductal injection. All cell lines were mixed on ice with 1×PBS and Matrigel. Then 100 μL of mixture was injected into mice. Tumors were measured twice a week, beginning 10 days after injection, and tumor volume was calculated by length×(width) 2/2 (mm^3).
(§1) Analysis of Tumor Progression. Tumor onset was monitored twice weekly by palpation. Tumor sizes were measured using a digital caliper twice weekly and the volumes were calculated as length× width2)/2. Inguinal tumors were weighted to determine tumor burden. Animals were sacrificed when the tumor burden visibly affected the host, or when the tumors reached the IACUC pre-determined limit of 20 mm along one axis.
As a next step, whether the anti-endotrophin antibodies effectively curb the aggressive tumor growth observed in endotrophin overexpressing MCF-7 cells was examined. To boost the growth rate of the tumor cells, these assays were performed in the presence of estradiol pellets. Cells (2×10^6 cells) were injected into nude mice and their tumor growth was monitored over time, based on a twice weekly injection of either a control monoclonal preparation, or ETPmAb4; in all cases, a total of 20 mg/kg of antibody was used. The dose dependence was tested by either injecting 20 mg/kg of control antibody, 20 mg/kg of ETPmAb4, or a mixture of the two with decreasing levels of control antibody mixed with increasing levels of ETPmAb4.
To test this, MCF7 cells were used with or without endotrophin overexpression, and the cells were transplanted into nude mice, in the presence of estradiol pellets (FIG. 5C). […] As expected, MCF7 cells harboring an excess in endotrophin grew very aggressively (FIG. 5C; red line).

[2] = test system: MCF7 cells; assay: MCF7 tumor growth in nude mice; format: in vivo; conditions: 2.5 mg/kg cisplatin once a week, estradiol pellet
Experimental: FIGS. 5A-C. Antibody effects on ETP-MCF7 cells in vivo. (FIG. 5A) ETP transfected MCF7 cells (2×10^6 cells) were implanted into nude mice. An estradiol pellet (0.72 mg) was implanted into nude mice. Then (i) 20 mg/kg ETPmAb4, (ii) 10 mg/kg ETPmAb4 with 10 mg/kg control IgG, (iii) 5 mg/kg ETPmAb4 with 15 mg/kg control IgG, (iv) 2 mg/kg ETPmAb4 with 18 mg/kg control IgG, and (v) 20 mg/kg control IgG (twice a week) were injected after 10-days implantation for 5-weeks. Tumor volume was determined by caliper measurement. Data was represented as mean±SD (n=5/group), and *** p<0.0001 by ANOVA followed by Newman-Keuls multiple comparison test. (FIG. 5B) Total RNA was prepared from tumor tissues from ETP transfected MCF7, ETPmAb4 treatment mice. The EMT markers genes Twist, Snail, Cdh2 and Cdh 1 were determined by qRT-PCR, then normalized to GAPDH. […] Tumor volume was determined by caliper measurement. […]
(§2) Animal experiments. […] Tumors were measured twice a week, beginning 10 days after injection, and tumor volume was calculated by length×(width) 2/2 (mm^3).
as §1, with “Inguinal tumors were weighted to determine tumor burden.” left out, “axis. […]” for “axis.”

[3] = test system: MDA-MB-231 cells; assay: MDA-MB-231 tumor growth in nude mice; format: in vivo; conditions: 2.5 mg/kg cisplatin
Experimental: FIGS. 6A-D. The antibody effects on MDA-MB-231 cells in vivo. (FIG. 6A) MDA-MB-231 cells (2×10^6 cells) were implanted into nude mice. Then 2.5 mg/kg of cisplatin and 20 mg/kg of ETPmAb4 antibody (twice a week) were injected after 10-days implantation for 5-weeks. Tumor volume was determined by caliper measurement. The insert reflects a simplified analysis of control antibody versus ETPmAb4 with associated statistics. (FIG. 6B) MDA-MB-231 cells (2×10^6 cells) were implanted into nude mice. Treatment was started when the tumor volume was over 30 mm^3. At that point, 2.5 mg/kg of cisplatin and 20 mg/kg of ETPmAb4 antibody (twice weekly) were injected for 5-weeks. Tumor volumes were determined by caliper measurements. The insert reflects a simplified analysis of control antibody versus ETPmAb4 with associated statistics. (FIG. 6C) SKOV3 cells (2×10^6 cells) were implanted into nude mice. Then 2.5 mg/kg of cisplatin and 20 mg/kg of ETPmAb4 antibody (twice weekly) were injected 10-days after implantation for 5-weeks. Tumor volumes were determined by caliper measurements. The insert reflects a simplified analysis of control antibody versus ETPmAb4 with associated statistics. (FIG. 6D) MDA-MB-231 cells (2×10^6 cells) were implanted into nude mice. Then 2.5 mg/kg of cisplatin, 20 mg/kg of ETPmAb4 antibody and 20 mg/kg of humanized ETPmAb4 antibody (twice a week) were injected after 10-days implantation for 5-weeks. Tumor volume was determined by caliper measurement. […]
as §2
as §1, with “Inguinal tumors were weighted to determine tumor burden.” left out, “axis. […]” for “axis.”
After humanization, the binding affinity of hETPmAb4 to endotrophin was measured in Octet RED96. […]

[4] = target: T1, recombinant endotrophin protein (Homo sapiens, UniProt P12111); assay: Affinity measurement with BLI (Octet RED96); conditions: Octet (96-Red), 1:1 binding model
T1 construct: the latter consisting of 77 amino acids at the carboxy-terminal of the COL6α3 chain; CD33 signal peptide (N, cleaved yes); His-tag with EK-cleavage site (N, cleaved yes); purchased Sino Biological, Beijing, China; host or cells: HEK293
Experimental: FIGS. 12A-B. Kinetic sensorgrams for ETP-mAb4 (FIG. 12A) and each of the humanized antibodies (FIG. 12B). […]
For antibody affinity measurement, antibody (30 μg/mL) was loaded onto the protein A biosensors for 4 min. Following a short baseline in kinetics buffer, the loaded biosensors were exposed to a series of recombinant endotrophin protein at 0.1-200 nM and background subtraction was used to correct for sensor drifting. All experiments were performed with shaking at 1,000 rpm. Background wavelength shifts were measured from reference biosensors that were loaded only with antibody. Kinetic sensorgrams for each antibody are shown in FIGS. 12A&B. ForteBio's data analysis software was used to fit the data to a 1:1 binding model to extract an association rate and dissociation rate. The Kd was calculated using the ratio of koff/kon and the estimated values of […] for endotrophin ETP-mAb4 and 4 humanized ETP-hMab4 antibodies are listed in Table 4.

T1 sequence (P12111 3101-3177): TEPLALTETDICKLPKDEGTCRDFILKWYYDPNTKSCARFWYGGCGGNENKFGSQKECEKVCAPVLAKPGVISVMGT

Row | Molecule | lesion growth, cisplatinum alone or with control antibody [1] | lesion growth, cisplatinum [2] | lesion growth, cisplatinum alone or with control antibodies [3] | kdis [4] | kon [4]
1 | N.N.[Cl][Pt][Cl] [cisplatinum, cisplatin, reference compound] | moderately reduced | significantly curbed lesion growth | reduced | – | –
2 | ETP-mAb4.4: humanized IgG1 version of ETPmAb4; VH SEQ ID NO: 161, VL SEQ ID NO: 158 (antibody, V domains shown, human IgG1 constant regions) VH: EVQLLESGGGLVQPGGSLRLSCAASGFSFSSGYYICWVRQAPGKGLEWIACIYGGNNNPYYANWVNGRFTTSRDNSKNTLYLQMNSLRAEDTAVYYCARKDINIGGAYELWGQGTLVTVSS VL: DIQMTQSPSSLSASVGDRVTITCQASQSISSSYLSWYQQKPGKAPKLLIYKASTLASGVPSRFSGSGSGTDFTLTISSLQPEDFATYYCQYSDWANSYGNAFGGGTKVEIK | – | – | – | 3.28 E−04 1/s | 1.30 E+05 1/Ms
3 | ETP-mAb4.5: humanized IgG1 version of ETPmAb4; VH SEQ ID NO: 162, VL SEQ ID NO: 158 (antibody, V domains shown, human IgG1 constant regions) VH: EVQLLESGGGLVQPGGSLRLSCAASGFTFSSGYYICWVRQAPGKGLEWIACIYGGNSNPYYANWVNGRFTISRDNSKNTLYLQMNSLRAEDTAVYYCARKDINIGGAYELWGQGTLVTVSS VL: DIQMTQSPSSLSASVGDRVTITCQASQSISSSYLSWYQQKPGKAPKLLIYKASTLASGVPSRFSGSGSGTDFTLTISSLQPEDFATYYCQYSDWANSYGNAFGGGTKVEIK | – | – | – | 2.23 E−04 1/s | 1.16 E+05 1/Ms
4 | ETP-mAb4.1: humanized IgG1 version of ETPmAb4; VH SEQ ID NO: 157, VL SEQ ID NO: 158 (antibody, V domains shown, human IgG1 constant regions) VH: EVQLLESGGGLVQPGGSLRLSCAASGFSFSSGYYICWVRQAPGKGLEWIACIYGGNNNPYYANWVNGRFTISRDNSKNTLYLQMNSLRAEDTAVYYCARKDINIGGAYELWGQGTLVTVSS VL: DIQMTQSPSSLSASVGDRVTITCQASQSISSSYLSWYQQKPGKAPKLLIYKASTLASGVPSRFSGSGSGTDFTLTISSLQPEDFATYYCQYSDWANSYGNAFGGGTKVEIK | – | – | – | 2.35 E−04 1/s | 1.16 E+05 1/Ms
5 | ETP-mAb4.2: humanized IgG1 version of ETPmAb4; VH SEQ ID NO: 159, VL SEQ ID NO: 158 (antibody, V domains shown, human IgG1 constant regions) VH: EVQLLESGGGLVQPGGSLRLSCAASGFSFSSGYYICWVRQAPGKGLEWIACIYGGNSNPYYANWVNGRFTISRDNSKNTLYLQMNSLRAEDTAVYYCARKDINIGGAYELWGQGTLVTVSS VL: DIQMTQSPSSLSASVGDRVTITCQASQSISSSYLSWYQQKPGKAPKLLIYKASTLASGVPSRFSGSGSGTDFTLTISSLQPEDFATYYCQYSDWANSYGNAFGGGTKVEIK | – | – | – | 3.05 E−04 1/s | 1.23 E+05 1/Ms
